Biological target: T1, myoglobin (human, UniProt P02144 2-154)
T1 sequence: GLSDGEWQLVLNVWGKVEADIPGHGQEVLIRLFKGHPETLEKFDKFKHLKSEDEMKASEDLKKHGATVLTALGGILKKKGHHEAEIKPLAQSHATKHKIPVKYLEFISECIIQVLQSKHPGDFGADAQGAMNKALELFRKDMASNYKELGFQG
Assay: electrochemical aptasensor (DPV); aptamer immobilized on TCPP-Gr/AuNPs/GCE; 45 min incubation; 1.47e-10 M myoglobin; LOD 6.7e-12 M, linear 2.0e-11 to 7.7e-7 M (not Kd); Aptamer dissolved in T-buffer: 20 mM Tris-HCl, 0.10 M NaCl, 5.0 mM MgCl2, 10 mM TCEP, pH 7.4; binding buffer and temperature not given in the material
Settings: protein: native; label: ferrocene (3')

Question: Does CCCTCCTTTCCTTCGACGTAGATCTGCTGCGTTGTTCCGA (ssDNA, 5' SH-(CH2)6; 3' ferrocene (Fc)) [MbBA (myoglobin-binding aptamer)] bind?
Answer: binds
